Measured values reported in the supplement of paper PMC9233669.
Fewer inactive variants are shown than the library holds.

Assays:
biotinyl-Phe-oxazolone = experiment: self-aminoacylation, catalytic enhancement (BFO) (fold over background); higher = more active; k-Seq, kA / k0A0; sequences stand for … in GGGAAUGGAUCCACAUCUACGAAUUC…UUCACUGCAGACUUGACGAAGCUG
How it was run: (§1)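 Mutagenized RNA pools with a 21-nt variable region (0.43 μM) were reacted with each biotinyl-aminoacyl-oxazolone at 2–1250 μM for 90 minutes at room temperature, in 50 μL HEPES/NaCl/KCl/MgCl2/CaCl2 buffer containing 5% acetonitrile at pH 6.9–7.0. RNA captured on streptavidin was quantified by triplicate qPCR and by Illumina sequencing. The fraction reacted for each sequence was fit to a pseudo-first-order model with bootstrapping, and catalytic enhancement is the median kA divided by the uncatalyzed rate, taken as the low-activity peak of a bimodal Gaussian fit.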

biotinyl-Ile-oxazolone = experiment: self-aminoacylation, catalytic enhancement (BIO) (fold over background); higher = more active; k-Seq, kA / k0A0; sequences stand for … in GGGAAUGGAUCCACAUCUACGAAUUC…UUCACUGCAGACUUGACGAAGCUG
How it was run: as §1

biotinyl-Met-oxazolone = experiment: self-aminoacylation, catalytic enhancement (BMO) (fold over background); higher = more active; k-Seq, kA / k0A0; sequences stand for … in GGGAAUGGAUCCACAUCUACGAAUUC…UUCACUGCAGACUUGACGAAGCUG
How it was run: as §1

biotinyl-Val-oxazolone = experiment: self-aminoacylation, catalytic enhancement (BVO) (fold over background); higher = more active; k-Seq, kA / k0A0; sequences stand for … in GGGAAUGGAUCCACAUCUACGAAUUC…UUCACUGCAGACUUGACGAAGCUG
How it was run: as §1

biotinyl-Leu-oxazolone = experiment: self-aminoacylation, catalytic enhancement (BLO) (fold over background); higher = more active; k-Seq, kA / k0A0; sequences stand for … in GGGAAUGGAUCCACAUCUACGAAUUC…UUCACUGCAGACUUGACGAAGCUG
How it was run: as §1

biotinyl-Trp-oxazolone = experiment: self-aminoacylation, catalytic enhancement (BWO) (fold over background); higher = more active; k-Seq, kA / k0A0; sequences stand for … in GGGAAUGGAUCCACAUCUACGAAUUC…UUCACUGCAGACUUGACGAAGCUG
How it was run: as §1

Row | Sequence | self-aminoacylation (biotinyl-Phe-oxazolone) | self-aminoacylation (biotinyl-Ile-oxazolone) | self-aminoacylation (biotinyl-Met-oxazolone) | self-aminoacylation (biotinyl-Val-oxazolone) | self-aminoacylation (biotinyl-Leu-oxazolone) | self-aminoacylation (biotinyl-Trp-oxazolone)
1 | CCACGCUUUAAGCAAUCGGUC [Fam1B.1 aminoacylation ribozyme variant] | 1.27 | 0.737 | 0.713 | 0.787 | 0.682 | 0.998
2 | CCACUCCAAACAAUCGGUCUG [Fam1A.1 aminoacylation ribozyme variant] | 4.18 | 1.11 | 1.13 | 1.22 | 1.09 | 3.48
3 | CCACUCGUCAAGCAAUCGGUC [Fam1B.1 aminoacylation ribozyme variant] | 0.586 | 1.15 | 1.18 | 1.58 | 1.35 | 0.864
4 | CCACUCUGCAAGCAAUCGGUC [Fam1B.1 aminoacylation ribozyme variant] | 1.11 | 1.24 | 1.06 | 1.41 | 1 | 1.09
5 | CCACUCUUCAAACAAUCGGUC [Fam1B.1 aminoacylation ribozyme variant] | 78.3 | 1.23 | 1.44 | 1.3 | 2.04 | 41.8
6 | CCACUCUUCAAGAAAUCGGUC [Fam1B.1 aminoacylation ribozyme variant] | 5.4 | 0.932 | 0.91 | 0.871 | 0.903 | 4.87
7 | CCACUCUUCAAGCAAUAGGUC [Fam1B.1 aminoacylation ribozyme variant] | 0.921 | 0.784 | 0.558 | 0.668 | 0.669 | 0.484
8 | CCACUCUUCAAGCAAUCGGUU [Fam1B.1 aminoacylation ribozyme variant] | 2.51 | 1.53 | 1.53 | 1.6 | 1.16 | 2.27
9 | CCACUUAAAACAAUCGGUCUG [Fam1A.1 aminoacylation ribozyme variant] | 0.816 | 1.11 | 1.44 | 1.13 | 1.05 | 1.12
10 | CCACUUCAAACAAUCGGACUG [Fam1A.1 aminoacylation ribozyme variant] | 22.6 | 0.9 | 1.03 | 1.1 | 1.26 | 14.9
11 | CCACUUCAAACAAUCGUUCUG [Fam1A.1 aminoacylation ribozyme variant] | 2.21 | 0.582 | 0.479 | 0.674 | 0.653 | 1.09
12 | CCACUUCAAAGAAUCGGUCUG [Fam1A.1 aminoacylation ribozyme variant] | 11.4 | 1.15 | 1.04 | 1.13 | 1.32 | 8.92
13 | CCACUUCGAACAAUCGGUCUG [Fam1A.1 aminoacylation ribozyme variant] | 1.26 | 1.15 | 1.77 | 1.24 | 1.41 | 1.32
14 | CCAGACGUCAAGCAAUCGGUC [Fam1B.1 aminoacylation ribozyme variant] | 0.503 | 1.24 | 1.52 | 1.99 | 1.99 | 0.65
15 | CCAGACUCCAAGCAAUCGGUC [Fam1B.1 aminoacylation ribozyme variant] | 2.16 | 1.22 | 1.17 | 1.23 | 1.23 | 1.48
16 | CCAGAGUUCAAGCAAUCGGUC [Fam1B.1 aminoacylation ribozyme variant] | 1.42 | 1.36 | 1.21 | 1.2 | 1.36 | 1.72
17 | CCAGUCUUCAAGCAAUCGGUC [Fam1B.1 aminoacylation ribozyme variant] | 68.5 | 1.67 | 1.79 | 1.63 | 2.8 | 38.6
18 | CCAUACUGCAAGCAAUCGGUC [Fam1B.1 aminoacylation ribozyme variant] | 1.06 | 1.14 | 1.15 | 1.14 | 0.996 | 0.938
19 | CCAUACUUCAAGCAAUAGGUC [Fam1B.1 aminoacylation ribozyme variant] | 1.03 | 0.72 | 0.505 | 0.633 | 0.597 | 0.513
20 | CCAUACUUCAAGCAAUCGAUC [Fam1B.1 aminoacylation ribozyme variant] | 1.01 | 0.666 | 0.45 | 0.842 | 0.489 | 0.638
21 | CCAUACUUCAAGCAAUCGGUA [Fam1B.1 aminoacylation ribozyme variant] | 1.04 | 1.33 | 1.22 | 1.26 | 1.1 | 1.1
22 | CCAUACUUCAAGCAAUCGGUC [Fam1B.1 aminoacylation ribozyme variant] | 22.5 | 1.07 | 0.921 | 1.11 | 1.14 | 10.1
23 | CCAUACUUCAAGUAAUCGGUC [Fam1B.1 aminoacylation ribozyme variant] | 8.18 | 0.914 | 0.825 | 0.861 | 1.07 | 5
24 | CCCCACUUCAAGCAAUCGAUC [Fam1B.1 aminoacylation ribozyme variant] | 2.79 | 0.768 | 0.533 | 0.93 | 0.67 | 1.27
25 | CCCCACUUCAAGCGAUCGGUC [Fam1B.1 aminoacylation ribozyme variant] | 5.13 | 1.69 | 2.53 | 2.02 | 1.68 | 4.88
26 | CCGAACUUCAAGCAAUCGGUC [Fam1B.1 aminoacylation ribozyme variant] | 34.4 | 1.26 | 1.43 | 1.54 | 1.68 | 20.6

Row | Sequence | self-aminoacylation (biotinyl-Phe-oxazolone) | self-aminoacylation (biotinyl-Ile-oxazolone) | self-aminoacylation (biotinyl-Met-oxazolone) | self-aminoacylation (biotinyl-Val-oxazolone) | self-aminoacylation (biotinyl-Leu-oxazolone) | self-aminoacylation (biotinyl-Trp-oxazolone)
27 | CCGCACUUAAAGCAAUCGGUC [Fam1B.1 aminoacylation ribozyme variant] | 0.932 | 1.13 | 1.1 | 1.25 | 1.05 | 1.15
28 | CCGCACUUCAAGCAAUGGGUC [Fam1B.1 aminoacylation ribozyme variant] | 1.13 | 0.918 | 0.802 | 1.21 | 1.04 | 1.08
29 | CCGCACUUCAAGGAAUCGGUC [Fam1B.1 aminoacylation ribozyme variant] | 10.7 | 1.45 | 1.37 | 1.52 | 1.44 | 10.8
30 | CCGCACUUCAAUCAAUCGGUC [Fam1B.1 aminoacylation ribozyme variant] | 39.7 | 1.27 | 1.26 | 1.62 | 2.03 | 28.7
31 | CCGCACUUCGAGCAAUCGGUC [Fam1B.1 aminoacylation ribozyme variant] | 5.29 | 1.22 | 1.46 | 2.27 | 1.46 | 2.26
32 | CCGCAGUUCAAGCAAUCGGUC [Fam1B.1 aminoacylation ribozyme variant] | 5.75 | 1.58 | 1.96 | 1.82 | 1.85 | 6.86
33 | CCGCUCUUCAAGCAAUCGGUC [Fam1B.1 aminoacylation ribozyme variant] | 35.5 | 1.42 | 1.6 | 1.76 | 1.92 | 26.3
34 | CCGUACUUCAAGCAAUCGGUC [Fam1B.1 aminoacylation ribozyme variant] | 34.5 | 1.16 | 1.06 | 1.3 | 1.42 | 18.4
35 | CCUCACCUCAAGCAAUCGGUC [Fam1B.1 aminoacylation ribozyme variant] | 4.38 | 1.02 | 0.79 | 1.3 | 0.963 | 2.12
36 | CCUCACUUCAAACAAUCGGUC [Fam1B.1 aminoacylation ribozyme variant] | 93.7 | 1.21 | 1.51 | 1.25 | 2.35 | 37.3
37 | CCUCACUUCAAGCAACCGGUC [Fam1B.1 aminoacylation ribozyme variant] | 1.67 | 0.978 | 0.857 | 0.834 | 0.806 | 1.29
38 | CCUCACUUCAAGCAAUCGGUA [Fam1B.1 aminoacylation ribozyme variant] | 1.91 | 1.05 | 1.51 | 1.11 | 1.22 | 1.57
39 | CCUCACUUCAAGCAAUCGGUG [Fam1B.1 aminoacylation ribozyme variant] | 25.3 | 4.12 | 6.58 | 4.01 | 9.05 | 6.88
40 | CCUCACUUCCAGCAAUCGGUC [Fam1B.1 aminoacylation ribozyme variant] | 1.23 | 1.05 | 0.651 | 1.06 | 0.861 | 0.965
41 | CCUCACUUUAAGCAAUCGGUC [Fam1B.1 aminoacylation ribozyme variant] | 1.2 | 0.734 | 0.544 | 0.688 | 0.619 | 0.683
42 | CCUCCCUUCAAGCAAUCGGUC [Fam1B.1 aminoacylation ribozyme variant] | 13.8 | 1.2 | 0.881 | 1.13 | 1.17 | 8.87
43 | CGACACUUCAAGCAAUCGGGC [Fam1B.1 aminoacylation ribozyme variant] | 8.3 | 1.91 | 1.36 | 2.43 | 1.85 | 2.12
44 | CGACACUUCAAGCAAUCGGUA [Fam1B.1 aminoacylation ribozyme variant] | 2.02 | 1.86 | 1.44 | 1.84 | 1.41 | 2.9
45 | CGACACUUCAAGCAUUCGGUC [Fam1B.1 aminoacylation ribozyme variant] | 3.31 | 1.8 | 1.64 | 1.99 | 1.55 | 1.51
46 | CGACACUUCCAGCAAUCGGUC [Fam1B.1 aminoacylation ribozyme variant] | 0.915 | 1.56 | 1.14 | 1.49 | 1.19 | 1.15
47 | CGACAUCAAACAAUCGGUCUG [Fam1A.1 aminoacylation ribozyme variant] | 3.7 | 1.11 | 1.05 | 1.19 | 0.934 | 2.71
48 | CGACUUAAAACAAUCGGUCUG [Fam1A.1 aminoacylation ribozyme variant] | 1.15 | 1.33 | 1.48 | 1.17 | 1.26 | 1.06
49 | CGACUUCAAACAAGCGGUCUG [Fam1A.1 aminoacylation ribozyme variant] | 1.23 | 1.39 | 1.6 | 1.37 | 1.11 | 1.45
50 | CGACUUCAAAGAAUCGGUCUG [Fam1A.1 aminoacylation ribozyme variant] | 9.34 | 1.31 | 1.32 | 1.3 | 1.66 | 7.38
51 | CUAAUUCAAACAAUCCGUCUG [Fam1A.1 aminoacylation ribozyme variant] | 0.937 | 0.682 | 0.635 | 0.764 | 0.578 | 0.609
